In the assay the target is Caenorhabditis elegans leucine-rich-repeat-containing GPCR (CeLGR), residues Gln31 to Arg712 (Caenorhabditis elegans) (UniProt G5EG04). As to the kind of experiment: MST.

From PMC11722252 come the findings set out here.

As a reminder, the Kd is a measure of binding affinity in units of concentration. Substance “C. elegans α2/β5 heterodimeric hormone (Ceα2β5) (from UniProt A7DT38 20-125) (complex)” yielded a Kd of 153 nM. This lies in the sub-micromolar range.
